The values that follow come from US20060246541A1.

The target in this assay is GPIIb/IIIa (integrin αIIbβ3). The experiment in a line: cell-based or functional assay.

Turning to “native contortrostatin (from UniProt Q805F6 419-482) (ligand)”, the IC50, inhibition of ADP-induced platelet aggregation was found to be 0.06 µM.
